These results are taken from article PMC10336005, “Architectural basis for cylindrical self-assembly governing Plk4-mediated centriole duplication in human cells” (Communications Biology, 2023).

Data set [1] concerns the target Cep63 (424–541)•Cep152 (1205–1295) heterotetrameric complex (human) (UniProt O94986). Put plainly: AUC; sedimentation equilibrium, 4 °C, pH 5.5 (150 mM NaCl, 50 mM citric acid/sodium citrate, 1 mM TCEP, 5% glycerol); 12.6, 25 and 55 µM fitted globally; reversible tetramer–octamer–hexadecamer model (heterotetramer to octamer, octamer to hexadecamer).
Data set [2] deals with the molecule itself. Put plainly: SEC-MALS; Cep63 (440–490), Wyatt SEC-MALS system. For orientation: SEC sorts molecules by how far they enter the pores of the column.
Data set [3] deals with the molecule itself. The data set is described as follows: SEC; SEC elution of Cep63 (440–490) triple mutants (Supplementary Fig. 3d).
Data set [4] addresses His-Cep63 (424–541) (human). Put plainly: AUC; sedimentation velocity, 50,000 rpm, 4 °C, 150 mM NaCl, 20 mM Tris pH 8.0, 0.5 mM TCEP, 5% glycerol.
A further data set has as its target T1, Cep152 (1205–1295) (human, UniProt O94986-3 1205-1295).
T1 chain: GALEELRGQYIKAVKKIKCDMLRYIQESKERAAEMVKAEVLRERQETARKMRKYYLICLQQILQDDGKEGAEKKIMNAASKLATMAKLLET
Put plainly: heterotetramer formation (2:2), iSCAMS; printed as <~60 nM.

The stoichiometry N is a count of units in the complex or per binding partner. The term Kd denotes the constant that tells how readily two partners part at equilibrium. A higher Kd goes with a looser complex.

As for “Cep63 (424–541)•Cep152 (1205–1295) heterotetrameric complex (from UniProt O94986-3 1205-1295)”, in data set [1], the Kd, octamer–octamer interaction (octamer–hexadecamer step) was 2.2 µM; the Kd, tetramer–tetramer interaction (tetramer–octamer step) stood at 370 µM; the k16 (dissociation constant of the hexadecamer into four tetramers, c4^4/c16) was 3e-13 M^3; the stoichiometry N (heterotetramers in the oligomer) stood at 4.

B1: Cep63 (440–490) (domain or fragment, human, UniProt Q96MT8 440-490, looked up)
chain: DMEKRLRAEMQKAEDKAVEHKEILDQLESLKLENRHLSEMVMKLELGLHEA
notes: Cep63, human, residues 440–490; The structure was phased by SAD; also called Cep63 (440–490) WT; Cep63 (440–490) dimer; source: E. coli BL21(DE3) RIL, purified (Ni-NTA, TEV digestion, Sephacryl S-100 HR SEC); selenomethionine-substituted protein from E. coli B834(DE3); not shown: (His)6, N-terminal, cleaved; MBP, N-terminal, cleaved
In the case of B1, the “stoichiometry N” value in data set [2] is 2.

B2: Cep63 (440–490) (L445A, A456K, L463K) (domain or fragment, human, UniProt Q96MT8 440-490, looked up)
chain: DMEKRARAEMQKAEDKKVEHKEIKDQLESLKLENRHLSEMVMKLELGLHEA
notes: Cep63, human, residues 440–490 with L445A, A456K, L463K; also called AKK; pKM6657; source: E. coli BL21(DE3) RIL, purified (Ni-NTA, TEV digestion, Sephacryl S-100 HR SEC); not shown: (His)6, N-terminal, cleaved; MBP, N-terminal, cleaved
Regarding B2, the binding result in data set [3] is given as “binds”.

B3: Cep152 (1205–1295) (domain or fragment)
chain: GALEELRGQYIKAVKKIKCDMLRYIQESKERAAEMVKAEVLRERQETARKMRKYYLICLQQILQDDGKEGAEKKIMNAASKLATMAKLLET
As to B3, the stoichiometry N (Cep63:Cep152 ratio (2:2)) in data set [4] is 1.

B4: His-Cep63 (424–541) (domain or fragment)
chain: LHQRDITIASTKGSSSDMEKRLRAEMQKAEDKAVEHKEILDQLESLKLENRHLSEMVMKLELGLHECSLPVSPLGSIATRFLEEEELRSHHILERLDAHIEELKRESEKTVRQFTALK
For the molecule B4, the Kd in the data set with Cep152 (1205–1295) was less than 60 nM.
